Test results reported in patent publication US20200262877A1, “ION CHANNEL-BINDING PEPTIDES AND METHODS OF USE THEREOF” (priority 2017, published 2020).

Columns and labels:
5HT3a = target: T1, 5HT3a (Homo sapiens, UniProt P46098); assay: Ion channel panel (IonWorks Barracuda): 5HT3a; format: cell-based
T1 construct: host or cells: HEK293 or CHO
T1 sequence (P46098 whole entry, looked up): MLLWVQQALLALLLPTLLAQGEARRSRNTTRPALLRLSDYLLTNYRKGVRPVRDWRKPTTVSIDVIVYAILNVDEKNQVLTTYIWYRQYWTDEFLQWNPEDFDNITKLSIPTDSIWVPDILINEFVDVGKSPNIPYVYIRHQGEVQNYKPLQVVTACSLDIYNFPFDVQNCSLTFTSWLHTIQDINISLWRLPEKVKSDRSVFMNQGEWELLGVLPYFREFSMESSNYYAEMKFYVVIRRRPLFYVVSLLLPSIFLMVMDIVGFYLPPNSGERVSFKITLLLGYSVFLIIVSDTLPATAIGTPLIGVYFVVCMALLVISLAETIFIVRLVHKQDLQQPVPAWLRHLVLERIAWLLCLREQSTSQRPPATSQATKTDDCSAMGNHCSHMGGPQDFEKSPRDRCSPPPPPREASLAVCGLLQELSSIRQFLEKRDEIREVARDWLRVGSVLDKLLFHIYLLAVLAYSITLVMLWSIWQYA
In short: (§1)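 Peptides were tested in duplicate at final 20 μM and 200 nM, with concentration set by amino acid analysis, in HEPES-buffered saline. They were applied for at least 5 min to HEK293 or CHO cells transfected with each channel. Currents were expressed as % inhibition, 1-(Ipeptide/Icontrol)×100, or % activation, Ipeptide/Icontrol×100, against a channel-matched reference compound.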

α3β4 = target: T2, α3β4 (Homo sapiens, UniProt P30926+P32297); assay: Ion channel panel (IonWorks Barracuda): α3β4; format: cell-based; conditions: 100% = no change, <100% = inhibition
T2 construct: host or cells: HEK293 or CHO
T2 sequence (P30926 22-498): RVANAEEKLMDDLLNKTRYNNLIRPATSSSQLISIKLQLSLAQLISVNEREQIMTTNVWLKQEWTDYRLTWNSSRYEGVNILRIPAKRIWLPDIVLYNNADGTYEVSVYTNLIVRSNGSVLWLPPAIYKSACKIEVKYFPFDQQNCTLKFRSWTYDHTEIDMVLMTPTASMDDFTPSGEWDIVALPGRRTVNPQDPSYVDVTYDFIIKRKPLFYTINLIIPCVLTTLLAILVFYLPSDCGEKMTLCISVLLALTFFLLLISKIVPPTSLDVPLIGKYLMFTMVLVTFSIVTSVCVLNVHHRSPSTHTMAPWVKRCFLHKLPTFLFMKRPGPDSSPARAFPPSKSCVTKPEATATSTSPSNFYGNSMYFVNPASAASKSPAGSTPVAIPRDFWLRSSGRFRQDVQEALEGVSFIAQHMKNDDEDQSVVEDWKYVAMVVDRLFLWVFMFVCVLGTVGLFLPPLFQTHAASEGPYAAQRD
T2 sequence (P32297 32-505): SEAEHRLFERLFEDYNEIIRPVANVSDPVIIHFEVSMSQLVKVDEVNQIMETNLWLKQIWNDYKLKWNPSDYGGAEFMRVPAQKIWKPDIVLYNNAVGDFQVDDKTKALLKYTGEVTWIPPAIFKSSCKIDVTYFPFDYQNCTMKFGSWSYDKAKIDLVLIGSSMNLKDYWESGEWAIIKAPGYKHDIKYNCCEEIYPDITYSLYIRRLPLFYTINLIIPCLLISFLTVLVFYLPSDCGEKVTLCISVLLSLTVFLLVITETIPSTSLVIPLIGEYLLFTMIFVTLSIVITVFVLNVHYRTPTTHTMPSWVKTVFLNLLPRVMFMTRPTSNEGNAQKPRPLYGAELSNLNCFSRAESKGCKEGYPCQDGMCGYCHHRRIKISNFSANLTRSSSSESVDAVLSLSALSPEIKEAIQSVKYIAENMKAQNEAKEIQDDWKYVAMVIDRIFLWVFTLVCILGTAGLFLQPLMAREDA
In short: as §1

α4β2 = target: T3, α4β2 (Homo sapiens, UniProt P17787+P43681); assay: Ion channel panel (IonWorks Barracuda): α4β2; format: cell-based; conditions: 100% = no change, <100% = inhibition
T3 construct: host or cells: HEK293 or CHO
In short: as §1

Cav2.1 = target: T4, Cav2.1 (Homo sapiens, UniProt O00555); assay: cell-based; conditions: 100% = no change, <100% = inhibition
T4 construct: host or cells: HEK293 or CHO
In short: as §1

Cav2.2 = target: T5, Cav2.2 (Homo sapiens, UniProt Q00975); assay: cell-based; conditions: 100% = no change, <100% = inhibition
T5 construct: host or cells: HEK293 or CHO
In short: as §1

Kv2.1 = target: T6, Kv2.1 (Homo sapiens, UniProt Q14721); assay: cell-based; conditions: 100% = no change, <100% = inhibition
T6 construct: host or cells: HEK293 or CHO
In short: as §1

GABA = assay: Ion channel panel (IonWorks Barracuda): GABA; format: cell-based; conditions: 100% = no change, <100% = inhibition
In short: as §1

Nav1.5 = Nav1.5 (Homo sapiens, UniProt Q14524); assay: in vitro; conditions: 100% = no change; for Activity of Nav1.5 with peptide, expressed as a percentage of the reference compound: peptide at 0.2 μM; for Activity of Nav1.5 with peptide (percentage of the reference compound): peptide at 20 μM
Sequence of Nav1.5 (Q14524 whole entry): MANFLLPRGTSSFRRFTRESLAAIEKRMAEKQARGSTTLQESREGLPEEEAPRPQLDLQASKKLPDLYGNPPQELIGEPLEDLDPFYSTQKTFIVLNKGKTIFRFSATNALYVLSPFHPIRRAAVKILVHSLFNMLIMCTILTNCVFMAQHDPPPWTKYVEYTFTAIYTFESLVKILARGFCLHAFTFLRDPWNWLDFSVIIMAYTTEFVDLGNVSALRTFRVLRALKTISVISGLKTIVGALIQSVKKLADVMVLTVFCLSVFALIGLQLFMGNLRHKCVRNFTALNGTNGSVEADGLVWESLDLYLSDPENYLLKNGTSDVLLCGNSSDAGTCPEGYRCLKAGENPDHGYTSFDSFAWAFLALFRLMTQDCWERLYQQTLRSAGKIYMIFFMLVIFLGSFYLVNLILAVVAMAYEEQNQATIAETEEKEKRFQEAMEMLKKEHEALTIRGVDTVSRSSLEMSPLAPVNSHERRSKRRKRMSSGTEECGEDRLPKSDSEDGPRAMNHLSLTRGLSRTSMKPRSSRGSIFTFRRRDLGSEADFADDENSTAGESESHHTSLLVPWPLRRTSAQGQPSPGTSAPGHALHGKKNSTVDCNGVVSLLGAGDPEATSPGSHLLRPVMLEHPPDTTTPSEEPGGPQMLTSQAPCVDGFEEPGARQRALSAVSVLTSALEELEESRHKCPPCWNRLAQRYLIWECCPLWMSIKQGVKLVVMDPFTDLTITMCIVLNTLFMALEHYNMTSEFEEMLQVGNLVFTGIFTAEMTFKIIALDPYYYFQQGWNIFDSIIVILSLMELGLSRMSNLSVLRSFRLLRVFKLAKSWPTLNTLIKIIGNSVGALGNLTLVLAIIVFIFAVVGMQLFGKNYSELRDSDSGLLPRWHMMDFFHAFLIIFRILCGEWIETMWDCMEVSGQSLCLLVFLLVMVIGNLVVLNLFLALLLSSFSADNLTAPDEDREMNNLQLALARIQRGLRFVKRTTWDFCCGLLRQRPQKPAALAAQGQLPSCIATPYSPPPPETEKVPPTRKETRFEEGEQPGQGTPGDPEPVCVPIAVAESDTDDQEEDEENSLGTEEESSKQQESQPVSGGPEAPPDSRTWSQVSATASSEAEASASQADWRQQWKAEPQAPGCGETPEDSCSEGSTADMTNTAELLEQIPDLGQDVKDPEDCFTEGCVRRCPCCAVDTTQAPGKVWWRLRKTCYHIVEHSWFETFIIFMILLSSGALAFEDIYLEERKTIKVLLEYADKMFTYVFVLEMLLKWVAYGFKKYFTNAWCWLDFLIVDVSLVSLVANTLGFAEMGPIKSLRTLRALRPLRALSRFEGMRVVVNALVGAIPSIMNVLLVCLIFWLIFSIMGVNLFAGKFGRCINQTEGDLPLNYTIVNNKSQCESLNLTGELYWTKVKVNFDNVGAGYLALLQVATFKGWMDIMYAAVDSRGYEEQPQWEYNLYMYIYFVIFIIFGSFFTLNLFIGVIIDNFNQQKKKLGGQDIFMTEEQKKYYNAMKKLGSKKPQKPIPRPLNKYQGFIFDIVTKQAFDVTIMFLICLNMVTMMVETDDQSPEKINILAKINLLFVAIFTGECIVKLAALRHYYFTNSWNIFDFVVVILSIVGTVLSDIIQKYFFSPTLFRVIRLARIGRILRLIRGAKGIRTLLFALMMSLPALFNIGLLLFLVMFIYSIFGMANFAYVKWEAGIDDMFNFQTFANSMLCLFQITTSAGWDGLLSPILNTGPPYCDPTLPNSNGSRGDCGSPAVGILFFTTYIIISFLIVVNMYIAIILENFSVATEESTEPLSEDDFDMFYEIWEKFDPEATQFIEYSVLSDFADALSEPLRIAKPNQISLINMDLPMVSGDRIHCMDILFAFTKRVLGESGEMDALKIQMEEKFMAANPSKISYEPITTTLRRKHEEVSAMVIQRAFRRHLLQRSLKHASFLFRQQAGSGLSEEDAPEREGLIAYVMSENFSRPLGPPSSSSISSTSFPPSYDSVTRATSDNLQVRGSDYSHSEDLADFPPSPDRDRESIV
In short: as §1

hERG = hERG (Homo sapiens, UniProt Q12809); assay: in vitro; conditions: 100% = no change, <100% = inhibition
In short: as §1

Kir2.1 = target: T7, Kir2.1 (Homo sapiens, UniProt P63252); assay: Ion channel panel (IonWorks Barracuda): Kir2.1; format: cell-based; conditions: 100% = no change, <100% = inhibition
T7 construct: host or cells: HEK293 or CHO
In short: as §1

Kv1.1 = target: T8, Kv1.1 (Homo sapiens, UniProt Q09470); assay: cell-based; format: cell-based; conditions: 100% = no change, <100% = inhibition
T8 construct: host or cells: HEK293 or CHO
In short: as §1

Kv1.2 = target: T9, Kv1.2 (Homo sapiens, UniProt P16389); assay: cell-based; format: cell-based; conditions: 100% = no change, <100% = inhibition
T9 construct: host or cells: HEK293 or CHO
In short: as §1

Kv1.3 = target: T10, Kv1.3 (Homo sapiens, UniProt P22001); assay: cell-based; format: cell-based; conditions: 100% = no change, <100% = inhibition
T10 construct: host or cells: HEK293 or CHO
In short: as §1

Nav1.7 = target: T11, Nav1.7 (Homo sapiens, UniProt Q15858); assay: cell-based; format: cell-based; conditions: 100% = no change; for Activity of Nav1.7 with peptide, expressed as a percentage of the reference compound: peptide at 0.2 μM; for Activity of Nav1.7 with peptide (percentage of the reference compound): peptide at 20 μM
T11 construct: host or cells: HEK293 or CHO
T11 sequence (Q15858 whole entry): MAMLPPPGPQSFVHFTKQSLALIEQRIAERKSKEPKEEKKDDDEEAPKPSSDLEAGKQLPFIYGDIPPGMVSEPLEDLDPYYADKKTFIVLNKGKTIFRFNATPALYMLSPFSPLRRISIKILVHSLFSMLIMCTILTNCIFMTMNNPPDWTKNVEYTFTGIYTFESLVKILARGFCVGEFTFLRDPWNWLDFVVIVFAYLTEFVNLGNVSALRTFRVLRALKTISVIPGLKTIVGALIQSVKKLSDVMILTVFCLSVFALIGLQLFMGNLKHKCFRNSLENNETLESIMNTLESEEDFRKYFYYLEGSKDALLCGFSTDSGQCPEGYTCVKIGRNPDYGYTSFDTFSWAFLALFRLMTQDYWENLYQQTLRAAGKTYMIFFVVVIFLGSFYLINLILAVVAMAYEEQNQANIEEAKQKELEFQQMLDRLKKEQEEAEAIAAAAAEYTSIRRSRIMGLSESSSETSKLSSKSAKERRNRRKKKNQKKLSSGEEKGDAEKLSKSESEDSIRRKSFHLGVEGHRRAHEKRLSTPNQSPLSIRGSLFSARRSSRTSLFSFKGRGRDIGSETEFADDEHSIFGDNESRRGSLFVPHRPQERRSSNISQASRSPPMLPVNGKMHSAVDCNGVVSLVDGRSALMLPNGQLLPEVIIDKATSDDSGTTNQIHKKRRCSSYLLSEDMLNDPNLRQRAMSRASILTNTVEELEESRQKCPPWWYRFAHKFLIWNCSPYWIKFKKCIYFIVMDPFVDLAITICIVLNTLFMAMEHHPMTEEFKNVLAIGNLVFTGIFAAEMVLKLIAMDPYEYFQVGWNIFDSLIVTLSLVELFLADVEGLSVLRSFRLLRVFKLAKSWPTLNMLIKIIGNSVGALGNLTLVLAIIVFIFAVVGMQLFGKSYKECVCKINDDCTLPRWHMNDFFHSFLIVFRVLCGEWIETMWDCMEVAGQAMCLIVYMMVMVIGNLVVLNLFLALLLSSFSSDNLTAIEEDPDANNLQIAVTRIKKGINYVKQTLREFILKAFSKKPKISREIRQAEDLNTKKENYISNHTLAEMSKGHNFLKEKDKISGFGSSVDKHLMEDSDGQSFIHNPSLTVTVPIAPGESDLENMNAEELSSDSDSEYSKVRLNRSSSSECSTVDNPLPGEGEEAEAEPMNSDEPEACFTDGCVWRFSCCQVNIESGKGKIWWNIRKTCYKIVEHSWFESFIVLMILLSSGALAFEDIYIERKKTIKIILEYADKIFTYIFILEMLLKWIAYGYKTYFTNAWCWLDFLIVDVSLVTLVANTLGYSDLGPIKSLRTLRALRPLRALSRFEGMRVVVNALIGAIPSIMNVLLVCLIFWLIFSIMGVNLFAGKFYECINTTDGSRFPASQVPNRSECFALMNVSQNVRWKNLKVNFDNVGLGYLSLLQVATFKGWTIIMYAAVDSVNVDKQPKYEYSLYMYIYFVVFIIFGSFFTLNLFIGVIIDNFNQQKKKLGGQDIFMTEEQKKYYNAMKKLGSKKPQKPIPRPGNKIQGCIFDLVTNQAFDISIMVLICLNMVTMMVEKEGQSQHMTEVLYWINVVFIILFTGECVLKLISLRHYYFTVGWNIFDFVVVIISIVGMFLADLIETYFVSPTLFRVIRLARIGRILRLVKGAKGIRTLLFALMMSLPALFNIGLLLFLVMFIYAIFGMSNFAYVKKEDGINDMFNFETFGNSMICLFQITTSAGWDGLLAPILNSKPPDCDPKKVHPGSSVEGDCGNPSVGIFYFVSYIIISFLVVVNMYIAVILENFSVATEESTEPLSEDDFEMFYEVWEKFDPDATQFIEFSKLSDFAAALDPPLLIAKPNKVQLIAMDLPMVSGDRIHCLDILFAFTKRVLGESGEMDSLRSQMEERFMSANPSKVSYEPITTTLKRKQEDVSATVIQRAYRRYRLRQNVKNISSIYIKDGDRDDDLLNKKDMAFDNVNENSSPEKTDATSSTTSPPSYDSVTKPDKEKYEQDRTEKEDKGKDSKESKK

NR2A = target: T12, NR2A (Homo sapiens, UniProt Q12879); assay: Ion channel panel (IonWorks Barracuda): NR2A; format: cell-based; conditions: 100% = no change, <100% = inhibition
T12 construct: host or cells: HEK293 or CHO
In short: as §1

NR2B = target: T13, NR2B (Homo sapiens, UniProt Q13224); assay: Ion channel panel (IonWorks Barracuda): NR2B; format: cell-based; conditions: 100% = no change, <100% = inhibition
T13 construct: host or cells: HEK293 or CHO
In short: as §1

TRPA1 = target: T14, TRPA1 (Homo sapiens, UniProt O75762); assay: Ion channel panel (IonWorks Barracuda): TRPA1; format: cell-based; conditions: 100% = no change, <100% = inhibition
T14 construct: host or cells: HEK293 or CHO
In short: as §1

TRPV1 = target: T15, TRPV1 (Homo sapiens, UniProt Q8NER1); assay: Ion channel panel (IonWorks Barracuda): TRPV1; format: cell-based; conditions: 100% = no change, <100% = inhibition
T15 construct: host or cells: HEK293 or CHO
In short: as §1

[1] = first of two Nav1.5 columns (probably TP1)
[2] = second of two Nav1.5 columns (probably TP2)
[3] = first of two Nav1.7 columns (probably TP1)
[4] = second of two Nav1.7 columns (probably TP2)

## 32 (GSQDKCKKVYENYPVSKCQLANQCNYDCKLDKHARSGECFYDEKRNLQCICDYCEY) [compound 32]
5HT3a
  Activity of 5HT3a with peptide (percentage of the reference compound): 105%
  Activity of 5HT3a with peptide, expressed as a percentage of the reference compound: 95%
α3β4; peptide at 0.2 μM
  Activity of a3b4 with peptide, expressed as a percentage of the reference compound: 100%
α3β4; peptide at 20 μM
  Activity of a3b4 with peptide (percentage of the reference compound): 96%
α4β2; peptide at 0.2 μM
  Activity of a4b2 with peptide, expressed as a percentage of the reference compound: 81%
α4β2; peptide at 20 μM
  Activity of a4b2 with peptide (percentage of the reference compound): 86%
Cav2.1; peptide at 0.2 μM
  Activity of Cav2.1 with peptide, expressed as a percentage of the reference compound: 98%
Cav2.1; peptide at 20 μM
  Activity of Cav2.1 with peptide (percentage of the reference compound): 92%
Cav2.2; peptide at 0.2 μM
  Activity of Cav2.2 with peptide, expressed as a percentage of the reference compound: 102%
Cav2.2; peptide at 20 μM
  Activity of Cav2.2 with peptide (percentage of the reference compound): 101%
Kv2.1; peptide at 0.2 μM
  Activity of Kv2.1 with peptide, expressed as a percentage of the reference compound: 92%
Kv2.1; peptide at 20 μM
  Activity of Kv2.1 with peptide (percentage of the reference compound): 93%
GABA; peptide at 0.2 μM
  Activity of GABA with peptide, expressed as a percentage of the reference compound: 98%
GABA; peptide at 20 μM
  Activity of GABA with peptide (percentage of the reference compound): 105%
Nav1.5; [1]
  Activity of Nav1.5 with peptide, expressed as a percentage of the reference compound: 108%
  Activity of Nav1.5 with peptide (percentage of the reference compound): 90%
Nav1.5; [2]
  Activity of Nav1.5 with peptide, expressed as a percentage of the reference compound: 101%
  Activity of Nav1.5 with peptide (percentage of the reference compound): 90%
hERG; peptide at 0.2 μM
  Activity of hERG with peptide, expressed as a percentage of the reference compound: 90%
hERG; peptide at 20 μM
  Activity of hERG with peptide (percentage of the reference compound): 65%
Kir2.1; peptide at 0.2 μM
  Activity of Kir2.1 with peptide, expressed as a percentage of the reference compound: 95%
Kir2.1; peptide at 20 μM
  Activity of Kir2.1 with peptide (percentage of the reference compound): 79%
Kv1.1; peptide at 0.2 μM
  Activity of Kv1.1 with peptide, expressed as a percentage of the reference compound: 76%
Kv1.1; peptide at 20 μM
  Activity of Kv1.1 with peptide (percentage of the reference compound): 114%
Kv1.2; peptide at 0.2 μM
  Activity of Kv1.2 with peptide, expressed as a percentage of the reference compound: 89%
Kv1.2; peptide at 20 μM
  Activity of Kv1.2 with peptide (percentage of the reference compound): 112%
Kv1.3; peptide at 0.2 μM
  Activity of Kv1.3 with peptide, expressed as a percentage of the reference compound: 98%
Kv1.3; peptide at 20 μM
  Activity of Kv1.3 with peptide (percentage of the reference compound): 98%
Nav1.7; [3]
  Activity of Nav1.7 with peptide, expressed as a percentage of the reference compound: 96%
  Activity of Nav1.7 with peptide (percentage of the reference compound): 87%
Nav1.7; [4]
  Activity of Nav1.7 with peptide, expressed as a percentage of the reference compound: 97%
  Activity of Nav1.7 with peptide (percentage of the reference compound): 61%
NR2A; peptide at 0.2 μM
  Activity of NR2A with peptide, expressed as a percentage of the reference compound: 95%
NR2A; peptide at 20 μM
  Activity of NR2A with peptide (percentage of the reference compound): 110%
NR2B; peptide at 0.2 μM
  Activity of NR2B with peptide, expressed as a percentage of the reference compound: 76%
NR2B; peptide at 20 μM
  Activity of NR2B with peptide (percentage of the reference compound): 106%
TRPA1; peptide at 0.2 μM
  Activity of TRPA1 with peptide, expressed as a percentage of the reference compound: 130%
TRPA1; peptide at 20 μM
  Activity of TRPA1 with peptide (percentage of the reference compound): 108%
TRPV1; peptide at 0.2 μM
  Activity of TRPV1 with peptide, expressed as a percentage of the reference compound: 99%
TRPV1; peptide at 20 μM
  Activity of TRPV1 with peptide (percentage of the reference compound): 84%
